Test results: patent US20220411491A1 (Hoffmann-La Roche, published 2022)

target: human GPRC5D (human, UniProt Q9NZD1 1-345); assay: cell-based or functional assay
Sequence (Q9NZD1 whole entry): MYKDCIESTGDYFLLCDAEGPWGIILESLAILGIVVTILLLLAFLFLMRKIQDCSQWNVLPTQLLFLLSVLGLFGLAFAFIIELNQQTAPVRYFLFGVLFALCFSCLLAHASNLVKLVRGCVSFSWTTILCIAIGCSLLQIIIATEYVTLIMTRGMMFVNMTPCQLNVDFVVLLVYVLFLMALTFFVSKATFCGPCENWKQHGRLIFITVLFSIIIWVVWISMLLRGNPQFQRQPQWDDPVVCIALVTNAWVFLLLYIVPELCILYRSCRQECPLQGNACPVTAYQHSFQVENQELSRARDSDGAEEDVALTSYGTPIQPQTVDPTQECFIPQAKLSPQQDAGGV

CAR-J2 EC50 [µg/mL]	Binder
0.0235	P1AE5739 (antibody, V domains shown) VH: EVQLVESGGGVVQPGRSLRLSCAASGFSFSNYGMAWVRQAPGKGLEWVASISTGGGNTYYRDSVKGRFTISRDNAKNTLYLQMNSLRAEDTAVYYCTRHDRGGLYWGQGTMVTVSS VL: DIVMTQSPLSLPVTPGEPASISCRSSKSLLHSNGITYVYWYLQKPGQSPQVLIYRMSNLASGVPDRFSGSGSGTDFTLKISRVEAEDVGVYHCGQLLENPYTFGQGTKLEIK
0.0619	P1AE5742 (antibody, V domains shown) VH: EVQLVESGGGVVQPGRSLRLSCAASGFSFSNYGMAWVRQAPGKGLEWVASISTGGGNTYYRDSVKGRFTISRDNAKNTLYLQMNSLRAEDTAVYYCTRHDRGGLYWGQGTMVTVSS VL: DIVMTQSPDSLAVSLGERATINCKSSKSLLHSNGITYVYWYQQKPGQPPKLLIYRMSNLASGVPDRFSGSGSGTDFTLTISSLQAEDVAVYHCGQLLENPYTFGQGTKLEIK
0.0821	P1AE5735 (antibody, V domains shown) VH: QVQLVESGGGVVQPGRSLRLSCAASGFSFSNYGMAWVRQAPGKGLEWVASISTGGGNTYYRDSVKGRFTISRDNSKNTLYLQMNSLRAEDTAVYYCTRHDRGGLYWGQGTMVTVSS VL: DIVMTQSPLSLPVTPGEPASISCRSSKSLLHSNGITYVYWYLQKPGKSPQVLIYRMSNLASGVPDRFSGSGSGTDFTLKISRVEAEDVGVYHCGQLLENPYTFGQGTKLEIK
0.19	P1AE5760 (antibody, V domains shown) VH: EVQLVESGGGLVQPGGSLRLSCAASGFSFSNYGMAWVRQAPGKGLEWVASISTGGGNTYYADSVKGRFTISRDNAKNTLYLQMNSLRAEDTAVYYCTRHDRGGLYWGQGTMVTVSS VL: DIVMTQSPLSLPVTPGEPASISCRSSKSLLHSNGITYVYWYLQKPGQSPQVLIYRMSNLASGVPDRFSGSGSGTDFTLKISRVEAEDVGVYHCGQLLENPYTFGQGTKLEIK
0.03	P1AE5753 (antibody, V domains shown) VH: EVQLVESGGGVVQPGRSLRLSCAASGFSFSNYGMAWVRQAPGKGLEWVASISTGGGNTYYADSVKGRFTISRDNAKNTLYLQMNSLRAEDTAVYYCTRHDRGGLYWGQGTMVTVSS VL: DIVMTQSPDSLAVSLGERATINCKSSKSLLHSNGITYVYWYQQKPGQPPKLLIYRMSNLASGVPDRFSGSGSGTDFTLTISSLQAEDVAVYHCGQLLENPYTFGQGTKLEIK
0.0842	P1AE5762 (antibody, V domains shown) VH: EVQLVESGGGLVQPGGSLRLSCAASGFSFSNYGMAWVRQAPGKGLEWVASISTGGGNTYYADSVKGRFTISRDNAKNTLYLQMNSLRAEDTAVYYCTRHDRGGLYWGQGTMVTVSS VL: DIVMTQSPLSLPVTPGEPASISCRSSKSLLHSNGITYVYWYLQKPGQSPQLLIYRMSNRASGVPDRFSGSGSGTDFTLKISRVEAEDVGVYHCGQLLENPYTFGQGTKLEIK
0.0746	P1AE5761 (antibody, V domains shown) VH: EVQLVESGGGLVQPGGSLRLSCAASGFSFSNYGMAWVRQAPGKGLEWVASISTGGGNTYYADSVKGRFTISRDNAKNTLYLQMNSLRAEDTAVYYCTRHDRGGLYWGQGTMVTVSS VL: DIVMTQSPLSLPVTPGEPASISCRSSKSLLHSNGITYVYWYLQKPGKSPQVLIYRMSNLASGVPDRFSGSGSGTDFTLKISRVEAEDVGVYHCGQLLENPYTFGQGTKLEIK
0.145	P1AE5757 (antibody, V domains shown) VH: EVQLVESGGGLVQPGGSLRLSCAASGFSFSNYGMAWVRQAPGKGLEWVASISTGGGNTYYRDSVKGRFTISRDNAKNTLYLQMNSLRAEDTAVYYCTRHDRGGLYWGQGTMVTVSS VL: DIVMTQSPLSLPVTPGEPASISCRSSKSLLHSNGITYVYWYLQKPGQSPQLLIYRMSNRASGVPDRFSGSGSGTDFTLKISRVEAEDVGVYHCGQLLENPYTFGQGTKLEIK
0.17	P1AE5756 (antibody, V domains shown) VH: EVQLVESGGGLVQPGGSLRLSCAASGFSFSNYGMAWVRQAPGKGLEWVASISTGGGNTYYRDSVKGRFTISRDNAKNTLYLQMNSLRAEDTAVYYCTRHDRGGLYWGQGTMVTVSS VL: DIVMTQSPLSLPVTPGEPASISCRSSKSLLHSNGITYVYWYLQKPGKSPQVLIYRMSNLASGVPDRFSGSGSGTDFTLKISRVEAEDVGVYHCGQLLENPYTFGQGTKLEIK
0.00138	P1AE5736 (antibody, V domains shown) VH: QVQLVESGGGVVQPGRSLRLSCAASGFSFSNYGMAWVRQAPGKGLEWVASISTGGGNTYYRDSVKGRFTISRDNSKNTLYLQMNSLRAEDTAVYYCTRHDRGGLYWGQGTMVTVSS VL: DIVMTQSPLSLPVTPGEPASISCRSSKSLLHSNGITYVYWYLQKPGQSPQLLIYRMSNRASGVPDRFSGSGSGTDFTLKISRVEAEDVGVYHCGQLLENPYTFGQGTKLEIK
0.509	P1AE5752 (antibody, V domains shown) VH: EVQLVESGGGVVQPGRSLRLSCAASGFSFSNYGMAWVRQAPGKGLEWVASISTGGGNTYYADSVKGRFTISRDNAKNTLYLQMNSLRAEDTAVYYCTRHDRGGLYWGQGTMVTVSS VL: DIVMTQSPLSLPVTPGEPASISCRSSKSLLHSNGITYVYWYLQKPGQSPQLLIYRMSNRASGVPDRFSGSGSGTDFTLKISRVEAEDVGVYHCGQLLENPYTFGQGTKLEIK
0.00295	P1AE5737 (antibody, V domains shown) VH: QVQLVESGGGVVQPGRSLRLSCAASGFSFSNYGMAWVRQAPGKGLEWVASISTGGGNTYYRDSVKGRFTISRDNSKNTLYLQMNSLRAEDTAVYYCTRHDRGGLYWGQGTMVTVSS VL: DIVMTQSPDSLAVSLGERATINCKSSKSLLHSNGITYVYWYQQKPGQPPKLLIYRMSNLASGVPDRFSGSGSGTDFTLTISSLQAEDVAVYHCGQLLENPYTFGQGTKLEIK
0.514	P1AE5746 (antibody, V domains shown) VH: QVQLVESGGGVVQPGRSLRLSCAASGFSFSNYGMAWVRQAPGKGLEWVASISTGGGNTYYADSVKGRFTISRDNSKNTLYLQMNSLRAEDTAVYYCTRHDRGGLYWGQGTMVTVSS VL: DIVMTQSPLSLPVTPGEPASISCRSSKSLLHSNGITYVYWYLQKPGQSPQLLIYRMSNRASGVPDRFSGSGSGTDFTLKISRVEAEDVGVYHCGQLLENPYTFGQGTKLEIK
0.00896	P1AE5740 (antibody, V domains shown) VH: EVQLVESGGGVVQPGRSLRLSCAASGFSFSNYGMAWVRQAPGKGLEWVASISTGGGNTYYRDSVKGRFTISRDNAKNTLYLQMNSLRAEDTAVYYCTRHDRGGLYWGQGTMVTVSS VL: DIVMTQSPLSLPVTPGEPASISCRSSKSLLHSNGITYVYWYLQKPGKSPQVLIYRMSNLASGVPDRFSGSGSGTDFTLKISRVEAEDVGVYHCGQLLENPYTFGQGTKLEIK
0.0206	P1AE5750 (antibody, V domains shown) VH: EVQLVESGGGVVQPGRSLRLSCAASGFSFSNYGMAWVRQAPGKGLEWVASISTGGGNTYYADSVKGRFTISRDNAKNTLYLQMNSLRAEDTAVYYCTRHDRGGLYWGQGTMVTVSS VL: DIVMTQSPLSLPVTPGEPASISCRSSKSLLHSNGITYVYWYLQKPGQSPQVLIYRMSNLASGVPDRFSGSGSGTDFTLKISRVEAEDVGVYHCGQLLENPYTFGQGTKLEIK
0.0014	P1AE5741 (antibody, V domains shown) VH: EVQLVESGGGVVQPGRSLRLSCAASGFSFSNYGMAWVRQAPGKGLEWVASISTGGGNTYYRDSVKGRFTISRDNAKNTLYLQMNSLRAEDTAVYYCTRHDRGGLYWGQGTMVTVSS VL: DIVMTQSPLSLPVTPGEPASISCRSSKSLLHSNGITYVYWYLQKPGQSPQLLIYRMSNRASGVPDRFSGSGSGTDFTLKISRVEAEDVGVYHCGQLLENPYTFGQGTKLEIK
0.183	P1AE5747 (antibody, V domains shown) VH: QVQLVESGGGVVQPGRSLRLSCAASGFSFSNYGMAWVRQAPGKGLEWVASISTGGGNTYYADSVKGRFTISRDNSKNTLYLQMNSLRAEDTAVYYCTRHDRGGLYWGQGTMVTVSS VL: DIVMTQSPDSLAVSLGERATINCKSSKSLLHSNGITYVYWYQQKPGQPPKLLIYRMSNLASGVPDRFSGSGSGTDFTLTISSLQAEDVAVYHCGQLLENPYTFGQGTKLEIK
0.00644	P1AE5751 (antibody, V domains shown) VH: EVQLVESGGGVVQPGRSLRLSCAASGFSFSNYGMAWVRQAPGKGLEWVASISTGGGNTYYADSVKGRFTISRDNAKNTLYLQMNSLRAEDTAVYYCTRHDRGGLYWGQGTMVTVSS VL: DIVMTQSPLSLPVTPGEPASISCRSSKSLLHSNGITYVYWYLQKPGKSPQVLIYRMSNLASGVPDRFSGSGSGTDFTLKISRVEAEDVGVYHCGQLLENPYTFGQGTKLEIK
0.00363	P1AE5744 (antibody, V domains shown) VH: QVQLVESGGGVVQPGRSLRLSCAASGFSFSNYGMAWVRQAPGKGLEWVASISTGGGNTYYADSVKGRFTISRDNSKNTLYLQMNSLRAEDTAVYYCTRHDRGGLYWGQGTMVTVSS VL: DIVMTQSPLSLPVTPGEPASISCRSSKSLLHSNGITYVYWYLQKPGQSPQVLIYRMSNLASGVPDRFSGSGSGTDFTLKISRVEAEDVGVYHCGQLLENPYTFGQGTKLEIK
0.00162	P1AE5745 (antibody, V domains shown) VH: QVQLVESGGGVVQPGRSLRLSCAASGFSFSNYGMAWVRQAPGKGLEWVASISTGGGNTYYADSVKGRFTISRDNSKNTLYLQMNSLRAEDTAVYYCTRHDRGGLYWGQGTMVTVSS VL: DIVMTQSPLSLPVTPGEPASISCRSSKSLLHSNGITYVYWYLQKPGKSPQVLIYRMSNLASGVPDRFSGSGSGTDFTLKISRVEAEDVGVYHCGQLLENPYTFGQGTKLEIK
0.0415	P1AE5734 (antibody, V domains shown) VH: QVQLVESGGGVVQPGRSLRLSCAASGFSFSNYGMAWVRQAPGKGLEWVASISTGGGNTYYRDSVKGRFTISRDNSKNTLYLQMNSLRAEDTAVYYCTRHDRGGLYWGQGTMVTVSS VL: DIVMTQSPLSLPVTPGEPASISCRSSKSLLHSNGITYVYWYLQKPGQSPQVLIYRMSNLASGVPDRFSGSGSGTDFTLKISRVEAEDVGVYHCGQLLENPYTFGQGTKLEIK
0.152	P1AE5755 (antibody, V domains shown) VH: EVQLVESGGGLVQPGGSLRLSCAASGFSFSNYGMAWVRQAPGKGLEWVASISTGGGNTYYRDSVKGRFTISRDNAKNTLYLQMNSLRAEDTAVYYCTRHDRGGLYWGQGTMVTVSS VL: DIVMTQSPLSLPVTPGEPASISCRSSKSLLHSNGITYVYWYLQKPGQSPQVLIYRMSNLASGVPDRFSGSGSGTDFTLKISRVEAEDVGVYHCGQLLENPYTFGQGTKLEIK
